Reference: article PMC9482650, “Quantitative fragmentomics allow affinity mapping of interactomes” (Nature Communications, 2022)

T1: SNTA1, Q13424
T1 sequence (Q13424 82-180, limits assumed, looked up): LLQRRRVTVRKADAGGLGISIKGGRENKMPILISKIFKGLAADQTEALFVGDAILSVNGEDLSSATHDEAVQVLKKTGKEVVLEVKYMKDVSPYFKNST

T2: GRIP1_2, Q9Y3R0
T2 sequence (Q9Y3R0 145-248, limits assumed, looked up): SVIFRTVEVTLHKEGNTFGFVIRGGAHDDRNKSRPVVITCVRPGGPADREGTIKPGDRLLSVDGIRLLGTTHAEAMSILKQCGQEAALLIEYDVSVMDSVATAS

T3: TX1BP3, O14907
T3 sequence (O14907 10-122, limits assumed, looked up): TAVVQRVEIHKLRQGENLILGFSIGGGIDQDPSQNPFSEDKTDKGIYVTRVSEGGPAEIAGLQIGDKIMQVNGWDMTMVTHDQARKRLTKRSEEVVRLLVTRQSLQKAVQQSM

T4: LIN7C, Q9NUP9
T4 sequence (Q9NUP9 88-185, limits assumed, looked up): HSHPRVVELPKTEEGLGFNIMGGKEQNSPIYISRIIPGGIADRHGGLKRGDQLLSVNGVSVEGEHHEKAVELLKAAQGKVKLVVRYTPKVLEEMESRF

T5: RHPN1, Q8TCX5
T5 sequence (Q8TCX5 508-602, limits assumed, looked up): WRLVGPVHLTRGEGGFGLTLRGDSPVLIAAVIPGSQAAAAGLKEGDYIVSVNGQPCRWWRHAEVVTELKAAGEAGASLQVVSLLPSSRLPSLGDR

T6: RAPGEF6, Q8TEU7
T6 sequence (Q8TEU7 525-625, limits assumed, looked up): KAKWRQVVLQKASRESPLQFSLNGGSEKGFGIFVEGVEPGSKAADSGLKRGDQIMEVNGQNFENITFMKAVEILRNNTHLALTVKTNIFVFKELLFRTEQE

T7: APBA1_1, Q02410
T7 sequence (Q02410 651-752, limits assumed, looked up): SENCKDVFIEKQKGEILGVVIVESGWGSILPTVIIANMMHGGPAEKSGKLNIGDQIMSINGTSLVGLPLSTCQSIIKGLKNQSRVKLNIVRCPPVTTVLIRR

T8: SNTB1, Q13884
T8 sequence (Q13884 107-205, limits assumed, looked up): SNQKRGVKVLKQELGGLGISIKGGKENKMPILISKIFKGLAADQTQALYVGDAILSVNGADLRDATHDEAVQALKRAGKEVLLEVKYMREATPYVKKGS

T9: DVL3, Q92997
T9 sequence (Q92997 244-331, limits assumed, looked up): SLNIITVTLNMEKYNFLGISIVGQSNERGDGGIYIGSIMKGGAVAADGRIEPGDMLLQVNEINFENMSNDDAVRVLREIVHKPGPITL

T10: SNTG1, Q9NSN8
T10 sequence (Q9NSN8 52-150, limits assumed, looked up): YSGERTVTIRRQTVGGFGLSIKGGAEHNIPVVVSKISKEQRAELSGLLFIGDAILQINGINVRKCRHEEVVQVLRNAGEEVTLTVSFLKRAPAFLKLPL

T11: HTRA4, P83105
T11 sequence (P83105 378-476, limits assumed, looked up): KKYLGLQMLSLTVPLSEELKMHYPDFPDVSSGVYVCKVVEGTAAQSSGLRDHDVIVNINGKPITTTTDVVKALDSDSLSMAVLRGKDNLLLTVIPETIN

B1: CFTR, P13569 (peptide)
chain: TEEEVQDTRL
B2: SLCO1C1, Q9NYB5 (peptide)
chain: NYWPGKETQL

These binders were tested against Inadl_8, Q8NI35 (assay: holdup assay). Conditions: plain residues with an end cap or a label only (N-terminal biotin on a linker: ttds).
Set-up: key: below the threshold = too weak to quantify, mostly under pKd 3.1 to 4

Sequence of Inadl_8, Q8NI35 (Q8NI35 1425-1530): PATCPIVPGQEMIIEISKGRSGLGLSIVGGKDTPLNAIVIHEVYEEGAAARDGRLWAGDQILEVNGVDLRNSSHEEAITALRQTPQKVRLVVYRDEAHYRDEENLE

Row | Binder | pKd
1 | B1 | below the threshold
2 | B2 | below the threshold

These binders were tested against T1, SNTA1, Q13424 (assay: holdup assay). Conditions: plain residues with an end cap or a label only (N-terminal biotin on a linker: ttds).
Set-up: key: below the threshold = too weak to quantify, mostly under pKd 3.1 to 4

Row | Binder | pKd
3 | B1 | 3.79
4 | B2 | 5.51

Each binder was assayed against LIMK2, P53671 (assay: holdup assay). Conditions: plain residues with an end cap or a label only (N-terminal biotin on a linker: ttds).
Set-up: key: below the threshold = too weak to quantify, mostly under pKd 3.1 to 4

Sequence of LIMK2, P53671 (P53671 143-248): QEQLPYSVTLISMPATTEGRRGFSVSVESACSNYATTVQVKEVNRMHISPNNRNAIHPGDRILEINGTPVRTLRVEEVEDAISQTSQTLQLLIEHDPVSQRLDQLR

Row | Binder | pKd
5 | B1 | below the threshold
6 | B2 | below the threshold

What follows are binders tested against TJP2_1, Q9UDY2 (assay: holdup assay). Conditions: plain residues with an end cap or a label only (N-terminal biotin on a linker: ttds).
Set-up: key: below the threshold = too weak to quantify, mostly under pKd 3.1 to 4

Sequence of TJP2_1, Q9UDY2 (Q9UDY2 24-128): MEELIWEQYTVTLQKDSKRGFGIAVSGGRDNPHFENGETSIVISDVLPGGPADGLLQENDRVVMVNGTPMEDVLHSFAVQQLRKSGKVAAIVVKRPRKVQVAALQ

Row | Binder | pKd
7 | B1 | below the threshold
8 | B2 | below the threshold

The binders below were run against MAGI2_5, Q86UL8 (assay: holdup assay). Conditions: plain residues with an end cap or a label only (N-terminal biotin on a linker: ttds).
Set-up: key: below the threshold = too weak to quantify, mostly under pKd 3.1 to 4

Sequence of MAGI2_5, Q86UL8 (Q86UL8 915-1017): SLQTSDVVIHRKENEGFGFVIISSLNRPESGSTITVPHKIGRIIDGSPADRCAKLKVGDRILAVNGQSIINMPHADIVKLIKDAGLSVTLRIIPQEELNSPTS

Row | Binder | pKd
9 | B1 | below the threshold
10 | B2 | 3.87

What follows are binders tested against NHERF4_1, Q86UT5-2 (assay: holdup assay). Conditions: plain residues with an end cap or a label only (N-terminal biotin on a linker: ttds).
Set-up: key: below the threshold = too weak to quantify, mostly under pKd 3.1 to 4

Sequence of NHERF4_1, Q86UT5-2 (Q86UT5 other isoform, or with tags, fused parts or gaps): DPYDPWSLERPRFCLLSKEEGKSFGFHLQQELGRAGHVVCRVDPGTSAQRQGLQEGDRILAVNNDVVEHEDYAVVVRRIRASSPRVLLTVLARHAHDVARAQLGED

Row | Binder | pKd
11 | B1 | below the threshold
12 | B2 | 4.04

Each binder was assayed against T2, GRIP1_2, Q9Y3R0 (assay: holdup assay). Conditions: plain residues with an end cap or a label only (N-terminal biotin on a linker: ttds).
Set-up: key: below the threshold = too weak to quantify, mostly under pKd 3.1 to 4

Row | Binder | pKd
13 | B1 | below the threshold
14 | B2 | below the threshold

The binders below were run against T3, TX1BP3, O14907 (assay: holdup assay). Conditions: plain residues with an end cap or a label only (N-terminal biotin on a linker: ttds).
Set-up: key: below the threshold = too weak to quantify, mostly under pKd 3.1 to 4

Row | Binder | pKd
15 | B1 | below the threshold
16 | B2 | 5.47

What follows are binders tested against T4, LIN7C, Q9NUP9 (assay: holdup assay). Conditions: plain residues with an end cap or a label only (N-terminal biotin on a linker: ttds).
Set-up: key: below the threshold = too weak to quantify, mostly under pKd 3.1 to 4

Row | Binder | pKd
17 | B1 | below the threshold
18 | B2 | 4.93

These binders were tested against T5, RHPN1, Q8TCX5 (assay: holdup assay). Conditions: plain residues with an end cap or a label only (N-terminal biotin on a linker: ttds).
Set-up: key: below the threshold = too weak to quantify, mostly under pKd 3.1 to 4

Row | Binder | pKd
19 | B1 | 4.12
20 | B2 | 5.14

What follows are binders tested against T6, RAPGEF6, Q8TEU7 (assay: holdup assay). Conditions: plain residues with an end cap or a label only (N-terminal biotin on a linker: ttds).
Set-up: key: below the threshold = too weak to quantify, mostly under pKd 3.1 to 4

Row | Binder | pKd
21 | B1 | below the threshold
22 | B2 | below the threshold

The binders below were run against Inadl_10, Q8NI35 (assay: holdup assay). Conditions: plain residues with an end cap or a label only (N-terminal biotin on a linker: ttds).
Set-up: key: below the threshold = too weak to quantify, mostly under pKd 3.1 to 4

Sequence of Inadl_10, Q8NI35 (Q8NI35 1673-1763): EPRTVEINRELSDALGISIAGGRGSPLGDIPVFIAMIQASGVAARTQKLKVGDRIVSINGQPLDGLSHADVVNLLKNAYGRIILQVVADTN

Row | Binder | pKd
23 | B1 | below the threshold
24 | B2 | below the threshold

The binders below were run against T7, APBA1_1, Q02410 (assay: holdup assay). Conditions: plain residues with an end cap or a label only (N-terminal biotin on a linker: ttds).
Set-up: key: below the threshold = too weak to quantify, mostly under pKd 3.1 to 4

Row | Binder | pKd
25 | B1 | below the threshold
26 | B2 | below the threshold

These binders were tested against T8, SNTB1, Q13884 (assay: holdup assay). Conditions: plain residues with an end cap or a label only (N-terminal biotin on a linker: ttds).
Set-up: key: below the threshold = too weak to quantify, mostly under pKd 3.1 to 4

Row | Binder | pKd
27 | B1 | 4.2
28 | B2 | 5.42

Each binder was assayed against MAST2, Q6P0Q8 (assay: holdup assay). Conditions: plain residues with an end cap or a label only (N-terminal biotin on a linker: ttds).
Set-up: key: below the threshold = too weak to quantify, mostly under pKd 3.1 to 4

Sequence of MAST2, Q6P0Q8 (Q6P0Q8 1099-1202): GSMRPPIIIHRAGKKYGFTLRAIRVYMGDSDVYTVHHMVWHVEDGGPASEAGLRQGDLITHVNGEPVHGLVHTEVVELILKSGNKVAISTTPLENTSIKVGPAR

Row | Binder | pKd
29 | B1 | 5.93
30 | B2 | 6.05

Each binder was assayed against T9, DVL3, Q92997 (assay: holdup assay). Conditions: plain residues with an end cap or a label only (N-terminal biotin on a linker: ttds).
Set-up: key: below the threshold = too weak to quantify, mostly under pKd 3.1 to 4

Row | Binder | pKd
31 | B1 | below the threshold
32 | B2 | below the threshold

Each binder was assayed against MAGI2_2, Q86UL8 (assay: holdup assay). Conditions: plain residues with an end cap or a label only (N-terminal biotin on a linker: ttds).
Set-up: key: below the threshold = too weak to quantify, mostly under pKd 3.1 to 4

Sequence of MAGI2_2, Q86UL8 (Q86UL8 410-522): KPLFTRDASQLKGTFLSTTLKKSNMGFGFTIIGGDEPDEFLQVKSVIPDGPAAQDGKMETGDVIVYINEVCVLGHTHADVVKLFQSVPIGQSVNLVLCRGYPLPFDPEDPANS

Row | Binder | pKd
33 | B1 | below the threshold
34 | B2 | 4.52

What follows are binders tested against ARHGEF12, Q9NZN5-2 (assay: holdup assay). Conditions: plain residues with an end cap or a label only (N-terminal biotin on a linker: ttds).
Set-up: key: below the threshold = too weak to quantify, mostly under pKd 3.1 to 4

Sequence of ARHGEF12, Q9NZN5-2 (Q9NZN5 other isoform, or with tags, fused parts or gaps): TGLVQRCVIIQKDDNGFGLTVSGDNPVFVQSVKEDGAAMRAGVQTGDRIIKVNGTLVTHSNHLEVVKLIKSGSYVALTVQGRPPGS

Row | Binder | pKd
35 | B1 | 3.52
36 | B2 | 4.94

The binders below were run against NHERF4_4, Q86UT5 (assay: holdup assay). Conditions: plain residues with an end cap or a label only (N-terminal biotin on a linker: ttds).
Set-up: key: below the threshold = too weak to quantify, mostly under pKd 3.1 to 4

Sequence of NHERF4_4, Q86UT5 (Q86UT5 464-550): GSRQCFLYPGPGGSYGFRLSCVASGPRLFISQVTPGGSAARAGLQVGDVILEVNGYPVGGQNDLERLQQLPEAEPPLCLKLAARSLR

Row | Binder | pKd
37 | B1 | below the threshold
38 | B2 | below the threshold

The binders below were run against DLG5_1, Q8TDM6 (assay: holdup assay). Conditions: plain residues with an end cap or a label only (N-terminal biotin on a linker: ttds).
Set-up: key: below the threshold = too weak to quantify, mostly under pKd 3.1 to 4

Sequence of DLG5_1, Q8TDM6 (Q8TDM6 617-713): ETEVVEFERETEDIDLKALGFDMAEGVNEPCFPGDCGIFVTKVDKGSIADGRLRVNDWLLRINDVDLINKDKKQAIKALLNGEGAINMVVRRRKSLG

Row | Binder | pKd
39 | B1 | below the threshold
40 | B2 | below the threshold

Each binder was assayed against DLG2_3, Q15700 (assay: holdup assay). Conditions: plain residues with an end cap or a label only (N-terminal biotin on a linker: ttds).
Set-up: key: below the threshold = too weak to quantify, mostly under pKd 3.1 to 4

Row | Binder | pKd
41 | B1 | below the threshold
42 | B2 | 4.69

Each binder was assayed against GRIP2_3, Q9C0E4 (assay: holdup assay). Conditions: plain residues with an end cap or a label only (N-terminal biotin on a linker: ttds).
Set-up: key: below the threshold = too weak to quantify, mostly under pKd 3.1 to 4

Sequence of GRIP2_3, Q9C0E4 (Q9C0E4 238-339): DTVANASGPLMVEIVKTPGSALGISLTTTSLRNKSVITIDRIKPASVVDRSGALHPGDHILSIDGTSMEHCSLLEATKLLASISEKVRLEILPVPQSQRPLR

Row | Binder | pKd
43 | B1 | below the threshold
44 | B2 | below the threshold

The binders below were run against IL16_1, Q14005 (assay: holdup assay). Conditions: plain residues with an end cap or a label only (N-terminal biotin on a linker: ttds).
Set-up: key: below the threshold = too weak to quantify, mostly under pKd 3.1 to 4

Sequence of IL16_1, Q14005 (Q14005 210-306): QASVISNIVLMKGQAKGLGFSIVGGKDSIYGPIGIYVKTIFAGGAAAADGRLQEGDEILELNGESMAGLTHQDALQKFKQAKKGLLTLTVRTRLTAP

Row | Binder | pKd
45 | B1 | below the threshold
46 | B2 | below the threshold

What follows are binders tested against DLG1_2, Q12959 (assay: holdup assay). Conditions: plain residues with an end cap or a label only (N-terminal biotin on a linker: ttds).
Set-up: key: below the threshold = too weak to quantify, mostly under pKd 3.1 to 4

Sequence of DLG1_2, Q12959 (Q12959 314-412): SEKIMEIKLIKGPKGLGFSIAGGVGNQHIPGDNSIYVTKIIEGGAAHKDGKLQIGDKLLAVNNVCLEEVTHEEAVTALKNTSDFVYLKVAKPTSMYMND

Row | Binder | pKd
47 | B1 | below the threshold
48 | B2 | 5.37

Each binder was assayed against T10, SNTG1, Q9NSN8 (assay: holdup assay). Conditions: plain residues with an end cap or a label only (N-terminal biotin on a linker: ttds).
Set-up: key: below the threshold = too weak to quantify, mostly under pKd 3.1 to 4

Row | Binder | pKd
49 | B1 | below the threshold
50 | B2 | 5.39

The binders below were run against T11, HTRA4, P83105 (assay: holdup assay). Conditions: plain residues with an end cap or a label only (N-terminal biotin on a linker: ttds).
Set-up: key: below the threshold = too weak to quantify, mostly under pKd 3.1 to 4

Row | Binder | pKd
51 | B1 | below the threshold
52 | B2 | below the threshold
